Article PMC9709061

Biological target: HSP90–CDC37–BRAF^V600E complex (human) (UniProt P08238)
Assay: cryo-EM structure; HSP90–CDC37–BRAF^V600E complex incubated with PP5 D274N, purified by SEC, cross-linked with 1 mM BS3; one sample gave three classes: HCK (3.4 Å), HCK-P open (4.2 Å), HCK-P closed (3.9 Å); PP5 modelled by rigid-body docking

Sequence of HSP90–CDC37–BRAF^V600E complex (human) (P08238 whole entry, chain 1 of 3): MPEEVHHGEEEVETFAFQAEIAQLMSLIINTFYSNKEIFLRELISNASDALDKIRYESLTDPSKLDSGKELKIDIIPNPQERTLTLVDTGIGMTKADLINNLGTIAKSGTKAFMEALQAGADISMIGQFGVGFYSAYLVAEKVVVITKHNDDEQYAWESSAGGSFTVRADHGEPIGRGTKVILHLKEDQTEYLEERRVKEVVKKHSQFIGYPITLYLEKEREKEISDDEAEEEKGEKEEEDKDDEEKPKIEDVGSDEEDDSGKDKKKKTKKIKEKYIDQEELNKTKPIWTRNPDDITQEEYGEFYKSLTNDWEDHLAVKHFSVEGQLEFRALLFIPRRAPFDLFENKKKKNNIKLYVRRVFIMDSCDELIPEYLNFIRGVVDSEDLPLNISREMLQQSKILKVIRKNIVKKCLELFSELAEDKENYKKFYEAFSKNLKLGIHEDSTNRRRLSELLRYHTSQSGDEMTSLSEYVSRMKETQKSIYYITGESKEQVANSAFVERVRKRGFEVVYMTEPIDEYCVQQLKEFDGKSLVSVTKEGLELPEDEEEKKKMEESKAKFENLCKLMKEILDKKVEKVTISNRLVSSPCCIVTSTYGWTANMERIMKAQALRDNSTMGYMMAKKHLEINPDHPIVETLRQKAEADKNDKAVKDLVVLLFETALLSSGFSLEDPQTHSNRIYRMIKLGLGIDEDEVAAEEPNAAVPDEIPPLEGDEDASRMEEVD
Sequence of HSP90–CDC37–BRAF^V600E complex (human) (Q16543 whole entry, chain 2 of 3, further chain): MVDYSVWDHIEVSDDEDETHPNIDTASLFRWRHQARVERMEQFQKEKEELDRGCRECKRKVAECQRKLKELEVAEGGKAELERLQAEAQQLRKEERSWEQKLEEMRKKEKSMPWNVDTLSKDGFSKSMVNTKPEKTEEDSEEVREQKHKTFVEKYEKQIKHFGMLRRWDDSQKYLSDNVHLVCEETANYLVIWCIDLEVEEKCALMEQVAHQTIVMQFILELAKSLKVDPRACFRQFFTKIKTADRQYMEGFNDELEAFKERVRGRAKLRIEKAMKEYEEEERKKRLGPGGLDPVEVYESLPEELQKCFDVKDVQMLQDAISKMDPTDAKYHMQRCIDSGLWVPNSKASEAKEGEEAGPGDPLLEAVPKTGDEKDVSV
Sequence of HSP90–CDC37–BRAF^V600E complex (human) (P15056 whole entry V600E, chain 3 of 3, further chain): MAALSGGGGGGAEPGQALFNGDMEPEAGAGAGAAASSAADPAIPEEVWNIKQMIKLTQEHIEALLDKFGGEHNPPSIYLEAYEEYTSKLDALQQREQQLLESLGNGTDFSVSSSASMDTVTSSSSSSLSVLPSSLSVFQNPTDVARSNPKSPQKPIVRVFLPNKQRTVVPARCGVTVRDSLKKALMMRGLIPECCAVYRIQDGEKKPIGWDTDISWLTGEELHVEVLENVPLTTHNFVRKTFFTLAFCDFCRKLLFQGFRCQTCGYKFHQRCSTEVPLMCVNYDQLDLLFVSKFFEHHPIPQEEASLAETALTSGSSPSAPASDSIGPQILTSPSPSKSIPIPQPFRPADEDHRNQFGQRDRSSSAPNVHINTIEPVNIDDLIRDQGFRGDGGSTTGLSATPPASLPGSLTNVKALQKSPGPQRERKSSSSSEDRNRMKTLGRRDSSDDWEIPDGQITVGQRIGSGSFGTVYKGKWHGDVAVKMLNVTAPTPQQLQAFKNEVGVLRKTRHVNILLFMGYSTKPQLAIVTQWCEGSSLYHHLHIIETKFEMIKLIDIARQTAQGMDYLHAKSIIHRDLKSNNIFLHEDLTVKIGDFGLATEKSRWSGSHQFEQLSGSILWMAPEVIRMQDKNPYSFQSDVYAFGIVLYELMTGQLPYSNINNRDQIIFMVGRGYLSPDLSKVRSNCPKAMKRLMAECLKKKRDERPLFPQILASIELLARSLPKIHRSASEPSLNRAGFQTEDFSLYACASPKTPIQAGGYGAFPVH

B1: PP5 D274N (enzyme)
chain: RDEPPADGALKRAEELKTQANDYFKAKDYENAIKFYSQAIELNPSNAIYYGNRSLAYLRTECYGYALGDATRAIELDKKYIKGYYRRAASNMALGKFRAALRDYETVVKVKPHDKDAKMKYQECNKIVKQKAFERAIAGDEHKRSVVDSLDIESMTIEDEYSGPKLEDGKVTISFMKELMQWYKDQKKLHRKCAYQILVQVKEVLSKLSTLVETTLKETEKITVCGDTHGQFYDLLNIFELNGLPSETNPYIFNGDFVNRGSFSVEVILTLFGFKLLYPDHFHLLRGNHETDNMNQIYGFEGEVKAKYTAQMYELFSEVFEWLPLAQCINGKVLIMHGGLFSEDGVTLDDIRKIERNRQPPDSGPMCDLLWSDPQPQNGRSISKRGVSCQFGPDVTKAFLEENNLDYIIRSHEVKAEGYEVAHGGRCVTVFSAPNYCDQMGNKASYIHLQGSDLRPQFHQFTAVPHPNVKPMAYANTLLQLGMM
stoichiometry N: 1
